In the RNAGym collection of RNA variant scans (doi:10.1093/molbev/msab373):

B1: Azoarcus group I ribozyme (parent)
chain: GUGCCUUGCGCCGGGAAACCACGCAAGGGAUGGUGUCAAAUUCGGCGAAACCUAAGCGCCCGCCCGGGCGUAUGGCAACGCCGAGCCAAGCUUCGGCGCCUGCGCCGAUGAAGGUGUAGAGACUAGACGGCACCCACCUAAGGCAAACGCUAUGGUGAAGGCAUAGUCCAGGGAGUGGCGAAAGUCACACAAACCGG

Variants of: B1
Assay: reverse-splicing fitness (ratio to wild type); higher = more active; in vitro selection; Mg2+ level not given
How it was run: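 An in vitro group I ribozyme library with randomized positions was T7-transcribed and gel-purified. In triplicate, 10 pmol RNA in EPPS pH 7.5 was reacted with 50 pmoles of a 30-nt RNA substrate for 1 h at 37 °C across several added MgCl2 levels (1–48 mM), then stopped with EDTA. Products were reverse transcribed from a substrate-complementary primer, PCR-amplified and sequenced (HiSeq 4000). Fitness is a variant's read proportion after selection over that before, normalised to wild type.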

Variant	reverse-splicing fitness
C82U A111C A120U A145G C169G U176G	0.0017
C82U A111C A120U A145G C169G U176C	0.00344
C82U A111C A145G C150U C169G U176C	0.0158
C82U A111C A145G C150U C169G U176A	0.0107
C82U A111C A145G C150U C169G U176G	0.00674
C82U A111C A120U A145G C169A U176A	0.00295
C82U A111C A120U A145G C169A U176C	0.0035
C82U A111C A120U A145G C169A U176G	0.00196
C82U A111C A120U C150G C169A	0.00691
C82U A111C A120U C150G C169G	0.00621
C82U A111C A120U C150G C169U	0.00611
C82U A111C A120U C150A C169G U176A	0.00492
C82U A111C A120U C150A C169G U176C	0.00392
C82U A111C A120U C150A C169G U176G	0.00237
C82U A111C A145G C150A C169U U176A	0.0144
C82U A111C A145G C150A C169U U176C	0.0157
C82U A111C A145G C150A C169U U176G	0.00739
C82U A111C A120U C150G C169A U176G	0.00261
C82U A111C A120U C150G C169A U176C	0.00467
C82U A111C A120U C150G C169A U176A	0.00624
C82U A111C A120U C150A U176A	0.00441

Variant	reverse-splicing fitness
C82U A111C A120U C150A U176G	0.00295
C82U A111C A120U C150A U176C	0.00573
C82U A111C A120U A145U C150A C169G U176A	0.00239
C82U A111C A120U A145U C150A C169G U176C	0.003
C82U A111C A120U A145U C150A C169G U176G	0.00205
C82U A111C A120U C150G C169U U176G	0.00265
C82U A111C A120U C150G C169U U176C	0.00516
C82U A111C A120U C150G C169U U176A	0.00421
C82U A111C A145G C150A U176C	0.0313
C82U A111C A145G C150A U176G	0.00984
C82U A111C A145G C150A U176A	0.0169
C82U A111C A120U C150U C169U U176G	0.00197
C82U A111C A120U C150U C169U U176C	0.00387
C82U A111C A120U C150U C169U U176A	0.00612
C82U A111C A120U C150A	0.0078
C82U A111C A120U C150G	0.00681
C82U A111C A120U C150U	0.0166
C82U A111C A145C C150U C169U U176A	0.0154
C82U A111C A145C C150U C169U U176C	0.00946
C82U A111C A145C C150U C169U U176G	0.00631
C82U A111C A120U A145U C150U C169G U176C	0.00305

Variant	reverse-splicing fitness
C82U A111C A120U A145U C150U C169G U176A	0.00231
C82U A111C A120U A145U C150U C169G U176G	0.00201
C82U A111C A120U A145U C150A C169G	0.00265
C82U A111C A120U A145U C150A C169A	0.00298
C82U A111C A120U A145U C150A C169U	0.00262
C82U A111C A120U A145G C150U C169A U176A	0.00691
C82U A111C A120U A145G C150U C169A U176G	0.00262
C82U A111C A120U A145G C150U C169A U176C	0.00367
C82U A111C A145G C150U C169A	0.00963
C82U A111C A145G C150U C169U	0.00955
C82U A111C A145G C150U C169G	0.00802
C82U A111C A145C	0.239
C82U A111C A145U	0.246
C82U A111C A145G	0.266
C82U A111C A145C C169A U176A	0.0127
C82U A111C A145C C169A U176C	0.00939
C82U A111C A145C C169A U176G	0.00613
C82U A111C A145G U176G	0.0201
C82U A111C A145G U176A	0.0861
C82U A111C A145G U176C	0.113
C82U A111C A120U A145U C150A C169U U176G	0.00245

Variant	reverse-splicing fitness
C82U A111C A120U A145U C150A C169U U176C	0.00256
C82U A111C A120U A145U C150A C169U U176A	0.00365
C82U A111C A120U A145U C169G U176A	0.00259
C82U A111C A120U A145U C169G U176C	0.00286
C82U A111C A120U A145U C169G U176G	0.00187
C82U A111C A145C C150U C169G U176C	0.0168
C82U A111C A145C C150U C169G U176A	0.0257
C82U A111C A145C C150U C169G U176G	0.0077
C82U A111C A120U A145G C150U	0.0233
C82U A111C A120U A145G C150G	0.00805
C82U A111C A120U A145U U176G	0.00361
C82U A111C A120U A145U U176A	0.00693
C82U A111C A120U A145U U176C	0.0113
C82U A111C A145C C150A U176C	0.0145
C82U A111C A145C C150A U176G	0.00685
C82U A111C A145C C150A U176A	0.0114
C82U A111C A145C C150A C169U U176G	0.00709
C82U A111C A145C C150A C169U U176C	0.0106
C82U A111C A145C C150A C169U U176A	0.0154
C82U A111C A120U C169A U176C	0.00352
C82U A111C A120U C169A U176A	0.00309
